Data as given in the RNAGym collection of RNA variant scans (doi:10.7554/elife.80360).

B1: HDV Ribozyme (parent)
chain: GGCCGGCAUGGUCCCAGCCUCCUCGCUGGCGCCGGCUGGGCAACAUUCCGAGGGGACCGUCCCCUCGGUAAUGGCGAAUGGGACCCA

Variants of: B1
Assay: self-cleavage, relative activity (ratio to wild type); higher = more cleavage; co-transcriptional

In order of rising self-cleavage:
1. GGCCGGCAUGGUCCCAGCCUCCUCGCUGGCGCGGGCUGGGCAACAUUCCGAGGGGACCGUCCCCUCGGUAAUGGCGAAUCGGACCCA [C33G G80C]  0
2. GGCCGGCAUGGUCCCAGCCUCCUCGCUGGCGCGGGCUCGGCAACAUUCCGAGGGGACCGUCCCCUCGGUAAUGGCGAAUGGGACCCA [C33G G38C]  0
3. GGCCGGCAUGGUCCCAGCCUCCUCGCUGGCGCGCGCUGGGCAACAUUCCGAGGGGACCGUCCCCUCGGUAAUGGCGAAUGGGACCCA [C33G G34C]  0
4. GGCCGGCAUGGUCCCAGCCUCCUCGCUGGCGCGGGCUGGGCAACAUUCCGAGGGGACCGUCCCCUCGGUAAUAGCGAAUGGGACCCA [C33G G73A]  0.0308
5. GGCCGGCAUGGUCCCAGCCUCCUCGCUGGCGCGGGCUGCGCAACAUUCCGAGGGGACCGUCCCCUCGGUAAUGGCGAAUGGGACCCA [C33G G39C]  0.0386
6. GGCCGGCAUGGUCCCAGCCUCCUCGCUGGCGCGGGCUGGGCAACAUUCCGAGGGGACCGUCCCCUCGGUAAUGGCGAAUGGGAUCCA [C33G C84U]  0.0386
7. GGCCGGCAUGGUCCCAGCCUCCUCGCUGGCGCGGCCUGGGCAACAUUCCGAGGGGACCGUCCCCUCGGUAAUGGCGAAUGGGACCCA [C33G G35C]  0.0396
8. GGCCGGCAUGGUCCCAGCCUCCUCGCUGGCGCGGGCUGGGCAACAUUCCGAGGGGACCGUCCCCUCGGUAAUGGCGAAUGGCACCCA [C33G G82C]  0.0405
9. GGCCGGCAUGGUCCCAGCCUCCUCGCUGGCGCGGGCUGGGCAACAUUCCGAGGGGACCGUCCCCUCGGUAAUGGGGAAUGGGACCCA [C33G C75G]  0.0426
10. GGCCGGCAUGGUCCCAGCCUCCUCGCUGGCGCGGGCUGGGCAACAUUCCGAGGUGACCGUCCCCUCGGUAAUGGCGAAUGGGACCCA [C33G G54U]  0.0426
11. GGCCGGCAUGGUCCCAGCCUCCUCGCUGGCGCGGGCUGGGCAACAUUCCGAGAGGACCGUCCCCUCGGUAAUGGCGAAUGGGACCCA [C33G G53A]  0.0449
12. GGCCGGCAUGGUCCCAGCCUCCUCGCUGGCGCGGGCUGGGCAACAUUCCGAGGGGACCGUCCACUCGGUAAUGGCGAAUGGGACCCA [C33G C63A]  0.0475
13. GGCCGGCAUGGUCCCAGCCUCCUCGCUGGCGCGGGCUGGGCAACAUUCCGAGGGGACCGUCCCCUCGGUAAUGGCGAAUGGGAGCCA [C33G C84G]  0.0489
14. GGCCGGCAUGGUCCCAGCCUCCUCGCUGGCGCGGGCUGUGCAACAUUCCGAGGGGACCGUCCCCUCGGUAAUGGCGAAUGGGACCCA [C33G G39U]  0.0692
15. GGCCGGCAUGGUCCCAGCCUCCUCGCUGGCGCGGGCUGGGCAACAUUCCGAGGGGACCGUCCCCUCGGUAAUGGAGAAUGGGACCCA [C33G C75A]  0.0791
16. GGCCGGCAUGGUCCCAGCCUCCUCGCUGGCGCGGGCUGGGCAACAUUCCGAGGGGACCGUCCCCUCAGUAAUGGCGAAUGGGACCCA [C33G G67A]  0.089
17. GGCCGGCAUGGUCCCAGCCUCCUCGCUGGCGCGGGCUGGGCAACAUUCCGAGGGGACCGUCCCCUCCGUAAUGGCGAAUGGGACCCA [C33G G67C]  0.0978
18. GGCCGGCAUGGUCCCAGCCUCCUCGCUGGCGCGUGCUGGGCAACAUUCCGAGGGGACCGUCCCCUCGGUAAUGGCGAAUGGGACCCA [C33G G34U]  0.0997
19. GGCCGGCAUGGUCCCAGCCUCCUCGCUGGCGCGGGCUGGGCAACAUUCCGAGGGGACCUUCCCCUCGGUAAUGGCGAAUGGGACCCA [C33G G59U]  0.111
20. GGCCGGCAUGGUCCCAGCCUCCUCGCUGGCGCGGGCUGGGCAACAUUCCGAGGGGACCGUCCCCUCGGUAAUGGCGAAUGGGACUCA [C33G C85U]  0.122
21. GGCCGGCAUGGUCCCAGCCUCCUCGCUGGCGCGGGCCGGGCAACAUUCCGAGGGGACCGUCCCCUCGGUAAUGGCGAAUGGGACCCA [C33G U37C]  0.122
22. GGCCGGCAUGGUCCCAGCCUCCUCGCUGGCGCGGGCUGGGCAACAUUCCGAGGGGACCGUCCCCUCGGUAAUGGCGAAUGAGACCCA [C33G G81A]  0.128
23. GGCCGGCAUGGUCCCAGCCUCCUCGCUGGCGCGGGCUGGGCAACAUUCCUAGGGGACCGUCCCCUCGGUAAUGGCGAAUGGGACCCA [C33G G50U]  0.131
24. GGCCGGCAUGGUCCCAGCCUCCUCGCUGGCGCGGGCUGGGCAACAUUCCGAGGGGACCGUCCCCUCGGUAAUUGCGAAUGGGACCCA [C33G G73U]  0.138
25. GGCCGGCAUGGUCCCAGCCUCCUCGCUGGCGCGGUCUGGGCAACAUUCCGAGGGGACCGUCCCCUCGGUAAUGGCGAAUGGGACCCA [C33G G35U]  0.142
26. GGCCGGCAUGGUCCCAGCCUCCUCGCUGGCGCGGGCUGGGCAACAUUCCGAGGGGACCGUCCCCUCGGUAAUGGCGAAUGGGACCAA [C33G C86A]  0.146
27. GGCCGGCAUGGUCCCAGCCUCCUCGCUGGCGCGGGCUGGGCAACAUUCCGAAGGGACCGUCCCCUCGGUAAUGGCGAAUGGGACCCA [C33G G52A]  0.148
28. GGCCGGCAUGGUCCCAGCCUCCUCGCUGGCGCGGGCUGGGCAACAUUCCGAGGGGACCGUCCCCUCGGUAAUGGCGAAUGCGACCCA [C33G G81C]  0.151
29. GGCCGGCAUGGUCCCAGCCUCCUCGCUGGCGCGGGCUGGGCAACAUUCCGAGGGGACCGUCCCCUCGGUAAUGGUGAAUGGGACCCA [C33G C75U]  0.151
30. GGCCGGCAUGGUCCCAGCCUCCUCGCUGGCGCGGGCUGGGCAACAUUCCGAGGGGACCGUCCCCUCGGUAAUGGCGAAUGGGACCGA [C33G C86G]  0.151
31. GGCCGGCAUGGUCCCAGCCUCCUCGCUGGCGCGGGCUGGGCAACAUUCCGAGGGGACCGUCCCCACGGUAAUGGCGAAUGGGACCCA [C33G U65A]  0.156
32. GGCCGGCAUGGUCCCAGCCUCCUCGCUGGCGCGGGCUGGGCAACAUUCCGAGGGCACCGUCCCCUCGGUAAUGGCGAAUGGGACCCA [C33G G55C]  0.158
33. GGCCGGCAUGGUCCCAGCCUCCUCGCUGGCGCGGGCUGGGCAACAUUCCGAGGGGACCGUCCCCUCGGUAAUGUCGAAUGGGACCCA [C33G G74U]  0.173
34. GGCCGGCAUGGUCCCAGCCUCCUCGCUGGCGCGGGCUGGGCAACAUUCCGAGGGGACCGUCCUCUCGGUAAUGGCGAAUGGGACCCA [C33G C63U]  0.173
35. GGCCGGCAUGGUCCCAGCCUCCUCGCUGGCGCGGGCUGGGCAACAUUCCGAGGGGACCGUCCCCUCGGUAAUGGCGAAUGGGACACA [C33G C85A]  0.175
36. GGCCGGCAUGGUCCCAGCCUCCUCGCUGGCGCGGGCUGGGCAACAUUCCGAGGGGACCGUCCCCUCGAUAAUGGCGAAUGGGACCCA [C33G G68A]  0.177
37. GGCCGGCAUGGUCCCAGCCUCCUCGCUGGCGCGGGCUGGGCAACAUUCCGAGGGGACCGUCCCCUUGGUAAUGGCGAAUGGGACCCA [C33G C66U]  0.181
38. GGCCGGCAUGGUCCCAGCCUCCUCGCUGGCGCGGGCUGGGCAACACUCCGAGGGGACCGUCCCCUCGGUAAUGGCGAAUGGGACCCA [C33G U46C]  0.185
39. GGCCGGCAUGGUCCCAGCCUCCUCGCUGGCGCGGGCUGGGCAACAUUCCGAGGGGACCGUCCCCUCGGUAAUGGCAAAUGGGACCCA [C33G G76A]  0.185
40. GGCCGGCAUGGUCCCAGCCUCCUCGCUGGCGCGGGCUGGGCAACAUUCCGAGUGGACCGUCCCCUCGGUAAUGGCGAAUGGGACCCA [C33G G53U]  0.185
41. GGCCGGCAUGGUCCCAGCCUCCUCGCUGGCGCGGGCUGGGCAACAUUCCGAGGGGACCAUCCCCUCGGUAAUGGCGAAUGGGACCCA [C33G G59A]  0.188
42. GGCCGGCAUGGUCCCAGCCUCCUCGCUGGCGCGGGCUGGGCAACAUUCCGAGGGGACCGUGCCCUCGGUAAUGGCGAAUGGGACCCA [C33G C61G]  0.19
43. GGCCGGCAUGGUCCCAGCCUCCUCGCUGGCGCGGGCUGGGCAACAUUCCGAGGGGACCGUACCCUCGGUAAUGGCGAAUGGGACCCA [C33G C61A]  0.193
44. GGCCGGCAUGGUCCCAGCCUCCUCGCUGGCGCGGGCUGGGCAACAUUCCGAGGGGACCGUCGCCUCGGUAAUGGCGAAUGGGACCCA [C33G C62G]  0.196
45. GGCCGGCAUGGUCCCAGCCUCCUCGCUGGCGCGGGCUGGGCAACAUUCCGAGGGGACCGUCCCCUCGGAAAUGGCGAAUGGGACCCA [C33G U69A]  0.201
46. GGCCGGCAUGGUCCCAGCCUCCUCGCUGGCGCGGGCUGGGCAACAGUCCGAGGGGACCGUCCCCUCGGUAAUGGCGAAUGGGACCCA [C33G U46G]  0.208
47. GGCCGGCAUGGUCCCAGCCUCCUCGCUGGCGCGGGCUGGGCAACAUUCCGAGGGGACCGUUCCCUCGGUAAUGGCGAAUGGGACCCA [C33G C61U]  0.212
48. GGCCGGCAUGGUCCCAGCCUCCUCGCUGGCGCGGGCUGGGCAACAUUCCGAGGGGACCGUCCCAUCGGUAAUGGCGAAUGGGACCCA [C33G C64A]  0.213
49. GGCCGGCAUGGUCCCAGCCUCCUCGCUGGCGCGGGCUGGGCAACAUUCCGAGGGGACCGGCCCCUCGGUAAUGGCGAAUGGGACCCA [C33G U60G]  0.217
50. GGCCGGCAUGGUCCCAGCCUCCUCGCUGGCGCGGGCUGGGCAACAUUCCGAGGGAACCGUCCCCUCGGUAAUGGCGAAUGGGACCCA [C33G G55A]  0.218
51. GGCCGGCAUGGUCCCAGCCUCCUCGCUGGCGCGGGCAGGGCAACAUUCCGAGGGGACCGUCCCCUCGGUAAUGGCGAAUGGGACCCA [C33G U37A]  0.225
52. GGCCGGCAUGGUCCCAGCCUCCUCGCUGGCGCUGGCUGGGCAGCAUUCCGAGGGGACCGUCCCCUCGGUAAUGGCGAAUGGGACCCA [C33U A43G]  0.227
53. GGCCGGCAUGGUCCCAGCCUCCUCGCUGGCGCGGGCUGGGCAACAUACCGAGGGGACCGUCCCCUCGGUAAUGGCGAAUGGGACCCA [C33G U47A]  0.227
54. GGCCGGCAUGGUCCCAGCCUCCUCGCUGGCGCGGGCUGGGCAACAUUCCGAGGGGACCGUCCCCUCGGUAAUGGCCAAUGGGACCCA [C33G G76C]  0.229
55. GGCCGGCAUGGUCCCAGCCUCCUCGCUGGCGCGGGCUGGUCAACAUUCCGAGGGGACCGUCCCCUCGGUAAUGGCGAAUGGGACCCA [C33G G40U]  0.233
56. GGCCGGCAUGGUCCCAGCCUCCUCGCUGGCGCGGGCUGGACAACAUUCCGAGGGGACCGUCCCCUCGGUAAUGGCGAAUGGGACCCA [C33G G40A]  0.243
57. GGCCGGCAUGGUCCCAGCCUCCUCGCUGGCGCUGGCUGGGCACCAUUCCGAGGGGACCGUCCCCUCGGUAAUGGCGAAUGGGACCCA [C33U A43C]  0.248
58. GGCCGGCAUGGUCCCAGCCUCCUCGCUGGCGCGGGCUGGGCAACAUUCCGAGGGGACCGUCCCCUCGGUAAUCGCGAAUGGGACCCA [C33G G73C]  0.253
59. GGCCGGCAUGGUCCCAGCCUCCUCGCUGGCGCUGGCUGGGCCACAUUCCGAGGGGACCGUCCCCUCGGUAAUGGCGAAUGGGACCCA [C33U A42C]  0.259
60. GGCCGGCAUGGUCCCAGCCUCCUCGCUGGCGCGGGCUGGGCAACAUUCCGAGGGGACCGUCCCCUCGGCAAUGGCGAAUGGGACCCA [C33G U69C]  0.277
61. GGCCGGCAUGGUCCCAGCCUCCUCGCUGGCGCGGGCUGGGCAACAUCCCGAGGGGACCGUCCCCUCGGUAAUGGCGAAUGGGACCCA [C33G U47C]  0.317
62. GGCCGGCAUGGUCCCAGCCUCCUCGCUGGCGCGGGCUGGGCAACAUUCCGAGGGGACCGUCCGCUCGGUAAUGGCGAAUGGGACCCA [C33G C63G]  0.369
63. GGCCGGCAUGGUCCCAGCCUCCUCGCUGGCGCUGGCUGGGCGACAUUCCGAGGGGACCGUCCCCUCGGUAAUGGCGAAUGGGACCCA [C33U A42G]  0.427
64. GGCCGGCAUGGUCCCAGCCUCCUCGCUGGCGCUGGCUGGGCAACAUUCCGAGGGGACCGUCCCCUCGGUAAUGGCGAAUGGGACCCA [C33U]  0.847
